Laboratory results: article PMC4802056

Target: taxol-stabilized microtubules
Assay: co-sedimentation; microtubule spin-down from DT40 lysates (about 2 mg/ml) mixed with taxol-stabilized microtubules (0.2 mg/ml) or non-taxol tubulin, 30 °C 30 min, pelleted through a 1 M sucrose cushion in BRB80, western blotting

fold reduction in microtubule binding compared with CEP215-TAP and CEP215(ΔHBR)-TAP: 3.4 fold
Substance: CEP215(ΔCM1)-TAP (domain or fragment)
